# Source: IntAct's records for PubMed 34948388
# B1: Multifunctional methyltransferase subunit TRM112-like protein (Homo sapiens), Q9UI30 (parent)
# chain: MKLLTHNLLSSHVRGVGSRGFPLRLQATEVRICPVEFNPNFVARMIPKVEWSAFLEAADNLRLIQVPKGPVEGYEENEEFLRTMHHLLLEVEVIEGTLQCPESGRMFPISRGIPNMLLSEEETES
# partner: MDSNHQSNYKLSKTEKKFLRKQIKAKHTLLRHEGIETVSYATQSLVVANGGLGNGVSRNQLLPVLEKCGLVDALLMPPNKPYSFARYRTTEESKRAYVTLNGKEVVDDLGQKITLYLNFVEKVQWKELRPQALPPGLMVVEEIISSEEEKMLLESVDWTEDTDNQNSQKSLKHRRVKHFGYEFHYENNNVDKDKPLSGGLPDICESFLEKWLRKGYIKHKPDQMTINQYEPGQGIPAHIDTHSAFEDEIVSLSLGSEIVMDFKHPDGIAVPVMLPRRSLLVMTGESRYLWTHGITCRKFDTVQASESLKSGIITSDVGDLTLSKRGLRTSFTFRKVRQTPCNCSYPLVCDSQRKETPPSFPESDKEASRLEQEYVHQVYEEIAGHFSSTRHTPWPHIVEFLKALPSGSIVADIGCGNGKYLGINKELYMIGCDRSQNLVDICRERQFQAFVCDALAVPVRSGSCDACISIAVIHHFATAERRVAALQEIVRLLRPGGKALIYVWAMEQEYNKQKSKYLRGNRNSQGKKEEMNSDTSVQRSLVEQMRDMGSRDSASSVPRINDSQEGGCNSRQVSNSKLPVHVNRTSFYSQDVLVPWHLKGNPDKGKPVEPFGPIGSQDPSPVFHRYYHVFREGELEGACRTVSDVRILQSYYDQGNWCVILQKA
# B2: Multifunctional methyltransferase subunit TRM112-like protein (Homo sapiens), Q9UI30 (parent)
# chain: B1 chain
# partner: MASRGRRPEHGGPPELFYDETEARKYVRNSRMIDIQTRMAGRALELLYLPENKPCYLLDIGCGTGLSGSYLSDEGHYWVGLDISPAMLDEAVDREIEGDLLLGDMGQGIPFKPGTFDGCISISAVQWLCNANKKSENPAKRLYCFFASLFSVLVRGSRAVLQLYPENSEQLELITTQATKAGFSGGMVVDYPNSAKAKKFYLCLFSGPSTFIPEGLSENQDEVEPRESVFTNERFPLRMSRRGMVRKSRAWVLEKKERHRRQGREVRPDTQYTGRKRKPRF
# B3: Multifunctional methyltransferase subunit TRM112-like protein (Homo sapiens), Q9UI30 (parent)
# chain: B1 chain
# partner: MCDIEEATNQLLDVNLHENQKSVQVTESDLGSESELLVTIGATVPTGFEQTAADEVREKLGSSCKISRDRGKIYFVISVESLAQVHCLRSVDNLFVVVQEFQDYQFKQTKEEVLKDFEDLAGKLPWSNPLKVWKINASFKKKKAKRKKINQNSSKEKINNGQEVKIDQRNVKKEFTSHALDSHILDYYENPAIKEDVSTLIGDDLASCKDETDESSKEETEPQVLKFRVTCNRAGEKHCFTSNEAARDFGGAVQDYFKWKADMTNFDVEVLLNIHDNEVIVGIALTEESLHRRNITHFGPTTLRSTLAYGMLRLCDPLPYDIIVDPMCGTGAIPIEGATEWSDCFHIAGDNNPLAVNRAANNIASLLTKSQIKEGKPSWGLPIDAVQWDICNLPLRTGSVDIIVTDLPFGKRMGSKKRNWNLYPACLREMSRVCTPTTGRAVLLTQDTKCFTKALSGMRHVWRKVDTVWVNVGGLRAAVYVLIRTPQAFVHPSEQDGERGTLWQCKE
# B4: Multifunctional methyltransferase subunit TRM112-like protein (Homo sapiens), Q9UI30 (parent)
# chain: B1 chain
# partner: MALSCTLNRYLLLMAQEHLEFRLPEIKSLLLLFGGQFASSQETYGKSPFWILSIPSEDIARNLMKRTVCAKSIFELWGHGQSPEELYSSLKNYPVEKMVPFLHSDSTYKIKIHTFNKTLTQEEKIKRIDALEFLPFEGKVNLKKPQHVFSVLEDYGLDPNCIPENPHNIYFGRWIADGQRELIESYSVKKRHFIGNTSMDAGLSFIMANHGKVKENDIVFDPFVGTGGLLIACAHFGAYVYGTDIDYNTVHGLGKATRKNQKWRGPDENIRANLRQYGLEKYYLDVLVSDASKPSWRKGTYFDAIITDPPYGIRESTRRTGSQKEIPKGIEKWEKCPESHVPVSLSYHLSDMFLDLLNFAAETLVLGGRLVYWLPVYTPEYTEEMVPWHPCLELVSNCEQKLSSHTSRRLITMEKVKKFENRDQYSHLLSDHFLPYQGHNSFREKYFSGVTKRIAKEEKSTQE
# B5: Multifunctional methyltransferase subunit TRM112-like protein (Homo sapiens), Q9UI30 (parent)
# chain: B1 chain
# partner: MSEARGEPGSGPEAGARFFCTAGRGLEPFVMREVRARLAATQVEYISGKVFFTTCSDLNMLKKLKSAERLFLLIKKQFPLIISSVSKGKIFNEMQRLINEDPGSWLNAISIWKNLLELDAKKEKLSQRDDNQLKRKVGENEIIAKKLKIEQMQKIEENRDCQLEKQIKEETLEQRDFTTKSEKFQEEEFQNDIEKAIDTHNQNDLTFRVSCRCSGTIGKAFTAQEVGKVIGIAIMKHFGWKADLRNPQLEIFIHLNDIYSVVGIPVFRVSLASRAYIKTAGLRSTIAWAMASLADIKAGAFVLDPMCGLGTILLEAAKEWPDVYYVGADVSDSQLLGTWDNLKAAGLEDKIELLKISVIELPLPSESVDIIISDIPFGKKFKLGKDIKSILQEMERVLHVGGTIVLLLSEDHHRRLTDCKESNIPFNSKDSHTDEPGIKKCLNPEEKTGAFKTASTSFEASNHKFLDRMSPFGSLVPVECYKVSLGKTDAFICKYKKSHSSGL
# Variants of: B1
# Details: with alkb8_human ALKBH8, Q96BT7
row,Variant,effect of a mutation on the interaction
1,M45A,disrupting interaction strength
2,S10F,with no effect
3,T5A,disrupting interaction strength
4,K48A,with no effect
5,L8W,with no effect

# Second part, the variant after the results:
row,effect of a mutation on the interaction,Variant
1,with no effect,E50A
2,with no effect,I113A
3,disrupting interaction strength,K48A;E92A
4,decreasing interaction strength,E92A
5,decreasing interaction strength,F107A

# Variants of: B2
# Details: with bud23_human BUD23, O43709
row,Variant,effect of a mutation on the interaction
1,S10F,with no effect
2,T5A,decreasing interaction strength
3,L8W,with no effect
4,K48A,with no effect
5,M45A,with no effect

# The remaining lines, values ahead:
row,effect of a mutation on the interaction,Variant
1,with no effect,E50A
2,disrupting interaction strength,F107A
3,with no effect,K48A;E92A
4,with no effect,E92A
5,with no effect,I113A

# Variants of: B3
# Details: with thum3_human THUMPD3, Q9BV44
row,Variant,effect of a mutation on the interaction
1,T5A,disrupting interaction strength
2,L8W,disrupting interaction strength
3,M45A,disrupting interaction strength
4,K48A,disrupting interaction strength
5,S10F,with no effect

# Continued, values first:
row,effect of a mutation on the interaction,Variant
1,with no effect,E50A
2,disrupting interaction strength,K48A;E92A
3,disrupting interaction strength,I113A
4,disrupting interaction strength,E92A
5,disrupting interaction strength,F107A

# Variants of: B4
# Details: with trm11_human TRMT11, Q7Z4G4
row,Variant,effect of a mutation on the interaction
1,L8W,with no effect
2,S10F,with no effect
3,K48A,with no effect
4,T5A,disrupting interaction strength
5,M45A,with no effect

# Further lines, results first:
row,effect of a mutation on the interaction,Variant
1,with no effect,I113A
2,decreasing interaction strength,E92A
3,decreasing interaction strength,F107A
4,with no effect,E50A
5,disrupting interaction strength,K48A;E92A

# Variants of: B5
# Details: with thum2_human THUMPD2, Q9BTF0
row,Variant,effect of a mutation on the interaction
1,L8W,disrupting interaction strength
2,M45A,disrupting interaction strength
3,T5A,disrupting interaction strength
4,S10F,disrupting interaction strength
5,K48A,disrupting interaction strength

# Continued, values first:
row,effect of a mutation on the interaction,Variant
1,disrupting interaction strength,K48A;E92A
2,disrupting interaction strength,F107A
3,with no effect,E50A
4,disrupting interaction strength,I113A
5,disrupting interaction strength,E92A
